Measured values reported in PMC4813677.

Target: pyruvate kinase M2 (PKM2) (human (endogenous in monocytes and macrophages)) (UniProt P14618)
Assay: cross-linking

pyruvate kinase M2 (PKM2), P14618 1-531 (enzyme; other documents disagree on this pair), sequence (P14618 whole entry): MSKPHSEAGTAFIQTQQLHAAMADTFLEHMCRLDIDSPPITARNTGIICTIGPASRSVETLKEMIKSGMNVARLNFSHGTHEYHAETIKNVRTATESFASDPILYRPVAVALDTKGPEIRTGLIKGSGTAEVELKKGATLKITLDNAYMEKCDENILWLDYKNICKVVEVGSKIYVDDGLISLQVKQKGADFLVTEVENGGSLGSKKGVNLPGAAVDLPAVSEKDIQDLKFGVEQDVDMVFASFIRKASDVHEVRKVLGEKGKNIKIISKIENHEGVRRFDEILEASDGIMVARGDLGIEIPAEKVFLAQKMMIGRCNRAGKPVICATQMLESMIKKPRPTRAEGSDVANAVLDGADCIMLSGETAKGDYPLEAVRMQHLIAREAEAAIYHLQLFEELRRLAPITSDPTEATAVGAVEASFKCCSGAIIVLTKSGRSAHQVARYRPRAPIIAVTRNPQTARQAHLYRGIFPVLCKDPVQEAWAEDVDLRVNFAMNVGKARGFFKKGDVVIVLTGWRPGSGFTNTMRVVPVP

- stoichiometry N: 2
Substance: pyruvate kinase M2 (PKM2), P14618 1-531 (enzyme; other documents disagree on this pair)
